In this assay the target is pir_arath PIR (UniProt Q5S2C3).
Sequence of pir_arath PIR (Q5S2C3 whole entry): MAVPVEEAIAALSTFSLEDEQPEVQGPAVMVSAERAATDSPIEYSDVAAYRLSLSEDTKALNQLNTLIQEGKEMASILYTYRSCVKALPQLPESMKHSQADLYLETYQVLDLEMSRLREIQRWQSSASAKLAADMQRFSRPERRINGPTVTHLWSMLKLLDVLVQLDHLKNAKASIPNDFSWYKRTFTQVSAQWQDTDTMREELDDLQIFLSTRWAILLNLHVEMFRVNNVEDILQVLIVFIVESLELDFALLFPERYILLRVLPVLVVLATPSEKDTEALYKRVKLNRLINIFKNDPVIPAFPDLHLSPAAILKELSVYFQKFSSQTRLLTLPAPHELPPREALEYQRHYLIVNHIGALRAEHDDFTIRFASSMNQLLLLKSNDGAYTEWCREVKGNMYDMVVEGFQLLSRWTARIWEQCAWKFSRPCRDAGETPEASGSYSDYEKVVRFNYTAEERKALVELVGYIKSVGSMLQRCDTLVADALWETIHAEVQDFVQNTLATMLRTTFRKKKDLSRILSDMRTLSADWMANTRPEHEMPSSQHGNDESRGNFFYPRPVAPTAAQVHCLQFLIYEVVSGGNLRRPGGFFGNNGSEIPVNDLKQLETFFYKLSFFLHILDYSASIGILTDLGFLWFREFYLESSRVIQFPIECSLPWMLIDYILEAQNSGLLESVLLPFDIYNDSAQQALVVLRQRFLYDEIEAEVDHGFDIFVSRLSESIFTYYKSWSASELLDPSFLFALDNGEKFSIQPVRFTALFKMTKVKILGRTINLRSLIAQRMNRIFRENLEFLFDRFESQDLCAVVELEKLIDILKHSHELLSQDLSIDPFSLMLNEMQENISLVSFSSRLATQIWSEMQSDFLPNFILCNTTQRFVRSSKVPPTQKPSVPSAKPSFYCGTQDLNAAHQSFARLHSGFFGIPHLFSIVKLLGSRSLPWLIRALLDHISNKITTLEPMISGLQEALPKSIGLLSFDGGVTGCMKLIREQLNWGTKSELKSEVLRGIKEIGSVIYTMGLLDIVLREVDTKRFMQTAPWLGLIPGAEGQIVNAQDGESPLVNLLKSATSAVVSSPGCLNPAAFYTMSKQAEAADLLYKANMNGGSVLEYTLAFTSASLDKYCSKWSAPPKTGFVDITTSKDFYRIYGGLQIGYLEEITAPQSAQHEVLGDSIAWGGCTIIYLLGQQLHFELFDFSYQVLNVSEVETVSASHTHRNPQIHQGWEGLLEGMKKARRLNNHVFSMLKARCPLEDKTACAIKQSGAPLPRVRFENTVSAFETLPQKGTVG

Sequence of Rac-like GTP-binding protein ARAC4 (Arabidopsis thaliana (Mouse-ear cress)), Q38919 T19N (Q38919 whole entry T19N): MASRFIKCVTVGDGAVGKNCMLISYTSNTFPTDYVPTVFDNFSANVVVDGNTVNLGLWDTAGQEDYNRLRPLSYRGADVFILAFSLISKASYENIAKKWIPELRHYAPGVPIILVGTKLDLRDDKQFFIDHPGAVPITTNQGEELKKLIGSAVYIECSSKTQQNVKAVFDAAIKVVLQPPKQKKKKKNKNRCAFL
Sequence of Rac-like GTP-binding protein ARAC4 (Arabidopsis thaliana (Mouse-ear cress)), Q38919 D120A (Q38919 whole entry D120A): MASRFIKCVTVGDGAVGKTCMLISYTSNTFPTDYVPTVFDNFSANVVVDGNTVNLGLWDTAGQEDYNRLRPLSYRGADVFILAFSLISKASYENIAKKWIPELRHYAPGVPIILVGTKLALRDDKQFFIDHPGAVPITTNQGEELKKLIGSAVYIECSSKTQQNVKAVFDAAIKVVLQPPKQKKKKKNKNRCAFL

Consider “Rac-like GTP-binding protein ARAC4 (Arabidopsis thaliana (Mouse-ear cress)), Q38919 T19N”, for which the “effect of a mutation on the interaction” value is reported as “disrupting interaction”.
On to “Rac-like GTP-binding protein ARAC4 (Arabidopsis thaliana (Mouse-ear cress)), Q38919 D120A”, for which the “effect of a mutation on the interaction” value was “disrupting interaction”.

For the origin of these results see IntAct's records for PubMed 15294869.
